{"source": "paper PMC6024848", "biological_target": "AcLys, putative Acinetobacter baumannii AB 5075 prophage endolysin (Acinetobacter baumannii AB 5075 (prophage region))", "assay": "SEC; gel permeation (size-exclusion) chromatography of recombinant AcLys; Superose 12 HR10/30 in 50 mM Bis-Tris pH 6.0 named for the purification step; monomer and dimer fractions redistribute to the mixture 3-4 h after separation; more monomer in dilute solution; beta-mercaptoethanol does not affect dimerization; dimer to monomers"}
{"substance": "AcLys, putative Acinetobacter baumannii AB 5075 prophage endolysin (enzyme)", "values": [{"measurement": "stoichiometry N", "result": 2}]}
